# Assay results from patent US20220324969A1 (MYTHIC THERAPEUTICS, published 2022).
# Where a chain is given by its changes, count along the chain named. Names may count otherwise.
# B1: MYT2633 (antibody, V domains shown)
# VH: QVQLQQPGAEVVKPGASVKMSCKASGYTFTSYYIHWIKQTPGQGLEWVGVIYPGNDDISYNQKFQGKATLTADKSSTTAYMQLSSLTSEDSAVYYCAREVRLRYFDVWGQGTTVTVSS
# VL: EIVLTQSPGSLAVSPGERVTMSCKSSQSVFFSSSQKNYLHWYQQIPGQSPRLLIYWASTRESGVPDRFTGSGSGTDFTLTISSVQPEDLAIYYCHQYLSSRTFGQGTKLEIK
# notes: IgG; IMGN779 VL variant #17 (A40H)
# B2: MYT2663 (antibody, V domains shown)
# VH: QVQLVQSGAEVKKPGASVKVSCKASGYTFTNYDINWVRQAPGQGLEWIGWIYPGDGSTKYNEKFKAKATLTADTSTSTAYMELRSLRSDDTAVYYCASGYEDAMDYWGQGTTVTVSS
# VL: DIQMTQSPSSLSASVGDRVTINCKASQDINSYLHWFQQKPGKAPKTLIYRANRLVDGVPSRFSGSGSGQDYTLTISSLQPEDFATYYCLQYDEFPLTFGGGTKVEIK
# notes: IgG; vadastuximab VL variant #11 (S34H)
# B3: MYT2661 (antibody, V domains shown)
# VH: B2 VH
# VL: B2 VL with Y32H, H34S
# notes: IgG; vadastuximab VL variant #9 (Y32H)
# B4: MYT1362 (antibody, V domains shown)
# VH: B2 VH with A97H
# VL: B2 VL with H34S
# notes: IgG; vadastuximab VH variant #28 (A97H)
# B5: MYT1364 (antibody, V domains shown)
# VH: B2 VH with G99H
# VL: B2 VL with H34S
# notes: IgG; vadastuximab VH variant #30 (G99H)
# B6: MYT1344 (antibody, V domains shown)
# VH: B2 VH with N35H
# VL: B2 VL with H34S
# notes: IgG; vadastuximab VH variant #10 (N35H)
# B7: MYT2673 (antibody, V domains shown)
# VH: B2 VH
# VL: B2 VL with H34S, Y91H
# notes: IgG; vadastuximab VL variant #21 (Y91H)
# B8: MYT2678 (antibody, V domains shown)
# VH: B2 VH
# VL: B2 VL with H34S, L96H
# notes: IgG; vadastuximab VL variant #26 (L96H)
# B9: MYT1342 (antibody, V domains shown)
# VH: B2 VH with D33H
# VL: B2 VL with H34S
# notes: IgG; vadastuximab VH variant #8 (D33H)
# B10: IMGN779 (antibody, V domains shown)
# VH: B1 VH
# VL: B1 VL with H40A
# notes: Unconjugated IgG from Expi293 supernatant; entries called heavy/light chain are variable domains; also called MYT1212; IMGN779 starting ABPC
# B11: Vadastuximab (antibody, V domains shown)
# VH: B2 VH
# VL: B2 VL with H34S
# notes: IgG from Expi293 supernatant; entries called heavy/light chain are variable domains; also called MYT1334; vadastuximab starting ABPC
# B12: MYT0516 (antibody, V domains shown)
# VH: EVQLVQSGAEVKKPGSSVKVSCKASGYTITDSNIHWVRQAPGQSLEWIGYIYPYNGGTDYNQKFKNRATLTVDNPTNTAYMELSSLRSEDTDFYYCVNGNPWLHYWGQGTLVTVSS
# VL: DIQLTQSPSTLSASVGDRVTITCRASESLDNYGIRFLTWFQQKPGKAPKLLMYAASNQGSGVPSRFSGSGSGTEFTLTISSLQPDDFATYYCQQTKEVPWSFGQGTKVEVK
# notes: IgG; gemtuzumab VH variant #35 (A104H)
# B13: MYT0517 (antibody, V domains shown)
# VH: B12 VH with H104A, Y105H
# VL: B12 VL
# notes: IgG; gemtuzumab VH variant #36 (Y105H)
# Molecular target: T1, CD33 (Sino Biological, Cat #12238-H08H) (UniProt P20138 18-259)
# Experiment: BLI, IgG captured on anti-human Fc sensor, pH 7.4 and pH 5.4
# T1 sequence (P20138 18-259 limits assumed): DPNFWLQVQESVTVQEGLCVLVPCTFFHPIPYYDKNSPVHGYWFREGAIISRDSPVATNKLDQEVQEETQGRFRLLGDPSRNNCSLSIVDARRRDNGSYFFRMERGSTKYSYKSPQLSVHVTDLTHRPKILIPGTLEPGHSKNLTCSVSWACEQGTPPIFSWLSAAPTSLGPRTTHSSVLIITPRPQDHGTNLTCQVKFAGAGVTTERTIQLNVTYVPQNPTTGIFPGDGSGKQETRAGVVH
row,binding result,Binder
1,no binding (tested: 50 nM CD33),B1
2,no binding (tested: 50 nM CD33),B2
3,no binding (tested: 50 nM CD33),B3
4,no binding (tested: 50 nM CD33),B4
5,no binding (tested: 50 nM CD33),B5
6,no binding (tested: 50 nM CD33),B6
7,no binding (tested: 50 nM CD33),B7
8,no binding (tested: 50 nM CD33),B8
9,no binding (tested: 50 nM CD33),B9

# Molecular target: T1, CD33 (Sino Biological, Cat #12238-H08H)
# Experiment: BLI, IgG captured on anti-human Fc biosensor, CD33 at low pH or high pH
row,binding result,Binder
1,binds,B10
2,binds,B11

# Molecular target: T1, CD33 (Sino Biological, Cat #12238-H08H)
# Experiment: BLI, IgG captured on anti-human Fc sensor, 50 nM CD33, pH 7.4 vs pH 5.0
# Excerpt: Multiple CD33-binding monoclonal antibodies have been described in the literature and can be used as a template for engineering pH-dependent binding (Hamann P R et al (2002) “Gemtuzumab ozogamicin, a potent and selective anti-CD33 antibody-calicheamicin conjugate for treatment of acute myeloid leukemia.” Bioconjug Chem 13(1):47-58). Gemtuzumab (Heavy chain SEQ ID NO: 1, Light chain SEQ ID NO: 2) was selected as a CD33-binding monoclonal antibody for pH engineering via histidine scanning. Briefly, CDRs in the heavy chain were identified using the methods described by Kabat et al (Kabat et al. (1992) Sequences of Proteins of Immunological Interest, DIANE publishing) and IMGT (Lefranc M P (1999) “The IMGT unique numbering for Immunoglobulins, T cell receptors and Ig-like domains” The Immunologist 7, 132-136), and for each CDR, residues falling under either or both Kabat and IMGT CDR definitions were called as CDR residues. To generate pH-dependent sequence variants, individual amino acid residues within the heavy chain CDRs were systematically substituted with a histidine, one at a time (MYT0482-MYT0517). In cases where the starting CDR residue was a histidine, it was mutated to an alanine. Antibody variants with only one histidine or alanine mutation in a heavy chain CDR were generated by co-transfection of Expi293 cells with a) one heavy chain sequence variant, and b) the corresponding starting ABPC light chain using methods known to the art. After allowing for four days of protein expression, cell culture supernatants were collected, quantified by SDS-PAGE analysis, (FIG. 1), and the pH dependence of the variant was evaluated using biolayer interferometry (BLI) on an Octet RED 384 instrument. Briefly, cell culture supernatants were normalized to an antibody expression level of 25 μg/mL, and captured on an anti-human Fc sensor (Forte Bio). A baseline was established using 1×PBST (50 mM Potassium Phosphate Buffer+150 mM NaCl+0.05% Tween 20) pH 7.4, and the sensor was associated with 50 nM of CD33 (Sino Biological, Cat #12238) in 1×PBST pH 7.4 for 120 sec to generate an association curve. In the dissociation phase, the antibody-antigen complex on the sensor was exposed to 1×PBST pH 7.4 for 300-600 sec. Baseline, association, and dissociation were repeated using 1×MES (100 mM MES Buffer+150 mM NaCl+0.05% Tween 20) pH 5.0 throughout in a separate condition.
row,binding result,Binder
1,binds,B12
2,binds,B13
